{"source": "patent US20110142842A1", "about": "“POLYPEPTIDES” (Medinnova AS, priority 2007, published 2011)", "biological_target": "HLA-A*0201 (human), A*02:0", "assay": "REVEAL MHC binding assay (ProImmune)", "data": [{"binder": "FLYGVILTV (modifications not checked)", "note": "[Peptide ID 131 … (TCR_TV, modified peptide)]", "values": [{"measurement": "% Pass/fail control (% of pass/fail control)", "result": 257}]}]}
